Assay results: article PMC10602907

Target: FgSreA, 6xHis-tagged recombinant protein (Fusarium graminearum PH-1)
Assay: MST
Conditions: natural protein

FgGrx4, 6xHis-tagged recombinant protein
EC50: 17.7 µM | Kd: 0.0001 µM
